Experimental findings from patent publication US6582902B1, “Method for deriving epitopes” (priority 1992, dated 2003) are described below.

The subject of this data set is g10-reactive antibodies (anti-g10 serum). Briefly: Competition for immunoprecipitation of [35S] g10-U1-A fusion protein by anti-g10 serum. In kind it is binding, rabbit. The text has this:
Panel A: Western blot of E. coli extracts containing various U1-A protein constructs. All extracts were produced from induced E. coli cells containing recombinant pET-8c T7 expression vectors in accordance with known techniques. See F. Studier et al., Meth. Enzym. 185, 60-89 (1991). U1-A cDNA was cloned into pET-8c either attached or not attached to the g10 peptide. Lanes: 1, 5 and 9: the pET-8c vector alone; 2, 6 and 10: g10-U1-A protein; 3, 7 and 11: U1-A protein; 4, 8 and 12: total HeLa cell extracts. Lanes 1-4 were probed with pre-immune rabbit serum; lanes 5-8 were probed with anti-g10 serum; and lanes 9-12 were probed with a U1/U2-specific autoimmune serum (patient). EW reacts with U1 RNA, U1-70K (70 kDa), U1-A (31 kDa) and U2-A′ (28.4 kDa) (lane 12). Panel B: Immunoprecipitation and competition analysis of [^35S]-methionine-labeled U1-A and g10-U1-A proteins expressed by in vitro transcription, and subsequent translation in rabbit reticulocyte lysates. Lanes: 1 and 2 show the amount of U1-A and g10-U1-A translation product, respectively, added to each immunoprecipitation reaction; 3: blank; 4 and 5: U1-A and g10-U1-A precipitated with serum EW (reactive with U1-A); 6 and 7: U1-A and g10-U1-A, respectively, precipitated with anti-g10 serum. In lanes 8-12, g10-U1-A was precipitated with anti-g10 serum in the presence of varying amounts of competitors as follows: lanes 8-11 contained the g10 peptide at concentrations of 27.8, 83.3, 250 and 750 nM, respectively; lane 12 contained a control peptide (sequence GKSRGFAFVEFK-amide) (SEQ ID NO:4) at a concentration of 25 mM. The faint lower band in all lanes represents either a degradation product or a premature translation termination product and is seen consistently in U1-A translations.
[^32P] labeled in vitro transcribed D10 RNA or [^35S] labeled in vitro translated g10 fusion protein (g10-U1A) was immunoprecipitated by the anti-g10 serum in the presence of various competitors. D10 RNA and g10 fusion protein bound in the immunoprecipitations were analyzed using denaturing polyacrylamide gels and autoradiography. […]

B1: D10 RNA: single RNA species selected from the degenerate pool by anti-g10 serum (SEQ ID NO:3); U1 stem II with loop UGGUGGAGCA (nucleic acid)
chain: GGGCCACCAACGACAUUGGGCGAGGCUUAUCCUGGUGGAGCAGGAUGUGCUGACCCCGUUGAUAUAAAUAGUGCCCAUGGAUC
modifications: chemistry not given here
notes: U1 stem II with loop UGGUGGAGCA
For the molecule B1, the “competition with g10 fusion protein for binding to the antibody” value (FIG. 5C, 0.7 nM competitor RNA) was “able to compete”. The “competition with [35S] labeled g10 fusion protein, increasing amounts of competitor” value (FIG. 5D, 0.0175-1.05 nM D10 RNA) is “able to progressively compete”.
